Key:
[1] = molecular target: Human LILRB2 on stably transduced HEK293T cells (human) (UniProt Q8N423); experiment: flow cytometry competition on HEK293T-LILRB2 cells; blocking mAb 1 µg/mL; competitor: biotinylated B2Comp1
[2] = molecular target: Human LILRB2 on stably transduced HEK293T cells (human) (UniProt Q8N423); experiment: flow cytometry competition on HEK293T-LILRB2 cells; blocking mAb 0.1 µg/mL; competitor: biotinylated B2Comp2
[3] = molecular target: Human LILRB2 on stably transduced HEK293T cells (human) (UniProt Q8N423); experiment: flow cytometry competition on HEK293T-LILRB2 cells; blocking mAb 10 µg/mL; competitor: biotinylated B2Comp2
[4] = molecular target: Human LILRB2 on stably transduced HEK293T cells (human) (UniProt Q8N423); experiment: flow cytometry competition on HEK293T-LILRB2 cells; blocking mAb 10 µg/mL; competitor: biotinylated B2Comp1
[5] = molecular target: Human LILRB2 on stably transduced HEK293T cells (human) (UniProt Q8N423); experiment: flow cytometry competition on HEK293T-LILRB2 cells; blocking mAb 1 µg/mL; competitor: biotinylated B2Comp2
[6] = molecular target: Human LILRB2 on stably transduced HEK293T cells (human) (UniProt Q8N423); experiment: flow cytometry competition on HEK293T-LILRB2 cells; blocking mAb 0.1 µg/mL; competitor: biotinylated B2Comp1

Sequence of Human LILRB2 on stably transduced HEK293T cells (human) (Q8N423 other isoform, or with tags, fused parts or gaps limits assumed): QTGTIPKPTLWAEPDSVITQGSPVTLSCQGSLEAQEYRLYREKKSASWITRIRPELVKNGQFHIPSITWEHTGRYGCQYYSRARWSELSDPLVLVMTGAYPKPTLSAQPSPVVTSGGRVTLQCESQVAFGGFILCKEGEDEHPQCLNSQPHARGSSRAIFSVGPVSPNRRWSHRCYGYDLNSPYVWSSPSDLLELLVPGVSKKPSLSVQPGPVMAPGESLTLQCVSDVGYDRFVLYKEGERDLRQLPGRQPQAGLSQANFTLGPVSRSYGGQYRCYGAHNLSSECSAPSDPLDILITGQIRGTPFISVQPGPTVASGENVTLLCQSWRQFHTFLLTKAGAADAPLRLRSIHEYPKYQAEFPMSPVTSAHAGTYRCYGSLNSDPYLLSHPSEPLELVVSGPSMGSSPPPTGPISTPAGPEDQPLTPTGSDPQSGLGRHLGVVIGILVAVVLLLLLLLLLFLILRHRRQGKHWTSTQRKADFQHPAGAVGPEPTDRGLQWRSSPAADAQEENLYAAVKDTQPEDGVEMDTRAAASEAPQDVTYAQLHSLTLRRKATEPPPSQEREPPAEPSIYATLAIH

% Blocking of B2Comp1 Binding [1]: 0%
% Blocking of B2Comp2 Binding [2]: 0%
% Blocking of B2Comp2 Binding [3]: 0%
% Blocking of B2Comp1 Binding [4]: 0%
% Blocking of B2Comp2 Binding [5]: 0%
% Blocking of B2Comp1 Binding [6]: 0%
Substance: hIgG4 isotype control (antibody)

From patent publication US20240132589A1
